B1: 抗氯胺酮(KET)特异性抗体6B2 (antibody, V domains shown)
VH: EVQLQQSGAELLKPGASVKLSCTASGFNIKDTYIHWVKQRPEQGLEWIGRIDPANGHTYYDPQFQGKATLTADTSSNTAYLQLSSLTSEDSAIYYCARFGEDWGQGTLVTVSA
VL: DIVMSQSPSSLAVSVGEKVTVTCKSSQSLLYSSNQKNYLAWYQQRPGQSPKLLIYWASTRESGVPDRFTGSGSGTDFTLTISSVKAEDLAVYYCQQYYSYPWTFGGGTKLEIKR
notes: also called 6B2单抗
B2: 抗氯胺酮(KET)特异性抗体4A1 (antibody, V domains shown)
VH: EVRLEESGGGLVQPGGSMKLSCVASGFTFSNYWMNWVRQSPEKGLEWVDEIKLKSNNYETHCVESVKGRFTISRDDSKSSVYLQMNNLRAEDTGIYYCARRGYGTYYAMDYWGQGTSVIVSS
VL: DVQITQSPSYLAASPGETITINCRASKSIRKYLAWYQEKPGKTNKLLIYSGSTLRSGTPSRFSGSGSGTDFTLTISSLEPEDFAMYYCQQHNEYPYTFGGGTKLEIKR
notes: also called 4A1单抗

Target: T1, 牛血清白蛋白 (bovine, UniProt P02769 25-607)
T1 construct: Carrier protein control, without ketamine, in the ELISA screen; also called BSA
Experiment: ELISA, BSA coated at 1 μg/mL, purified antibody, HRP secondary antibody, OD450

T1 sequence (P02769 25-607 limits assumed): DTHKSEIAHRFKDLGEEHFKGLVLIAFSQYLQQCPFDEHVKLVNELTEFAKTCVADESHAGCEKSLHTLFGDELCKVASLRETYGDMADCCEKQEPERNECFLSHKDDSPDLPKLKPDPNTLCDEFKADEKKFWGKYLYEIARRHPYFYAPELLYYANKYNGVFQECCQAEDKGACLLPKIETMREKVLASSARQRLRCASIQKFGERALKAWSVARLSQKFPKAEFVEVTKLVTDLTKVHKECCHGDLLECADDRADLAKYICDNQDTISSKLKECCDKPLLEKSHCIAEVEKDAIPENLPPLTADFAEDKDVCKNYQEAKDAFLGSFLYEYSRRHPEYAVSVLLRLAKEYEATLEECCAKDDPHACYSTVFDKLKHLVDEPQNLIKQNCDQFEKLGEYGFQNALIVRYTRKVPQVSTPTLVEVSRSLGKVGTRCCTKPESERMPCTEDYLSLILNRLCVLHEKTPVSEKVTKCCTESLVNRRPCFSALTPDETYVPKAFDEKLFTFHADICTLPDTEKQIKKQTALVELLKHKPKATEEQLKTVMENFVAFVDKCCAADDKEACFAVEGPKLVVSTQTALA

Binder	binding result
B1	no binding
B2	no binding

Source: CN114057881A (HANGZHOU XIANZHI BIOTECHNOLOGY CO LTD, dated 2022)
